Measurements reported in patent US20240343811A1 (SHANDONG SIMCERE BIOPHARMACUTICAL, published 2024).

T1: human CD16b (NA1), full length, on FlpinCHO cells (human, UniProt O75015 17-200)
T1 construct: also called FlpinCHO-human CD16b (NA1)
T1 chain: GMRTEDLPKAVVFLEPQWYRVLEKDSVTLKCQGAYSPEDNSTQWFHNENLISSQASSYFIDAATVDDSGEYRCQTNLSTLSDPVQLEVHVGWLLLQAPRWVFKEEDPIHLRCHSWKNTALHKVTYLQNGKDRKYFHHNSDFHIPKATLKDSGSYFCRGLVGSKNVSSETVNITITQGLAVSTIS

T2: human CD16b (NA2), full length, on FlpinCHO cells (human, UniProt O75015 17-200)
T2 construct: also called FlpinCHO-human CD16b (NA2)
T2 chain: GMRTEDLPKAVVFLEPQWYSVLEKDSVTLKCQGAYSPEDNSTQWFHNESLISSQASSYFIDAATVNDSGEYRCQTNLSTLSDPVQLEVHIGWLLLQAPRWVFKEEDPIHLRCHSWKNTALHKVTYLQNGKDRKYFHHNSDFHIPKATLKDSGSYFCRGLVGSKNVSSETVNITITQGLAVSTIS


Tests used:
[1] = target: T3, CD16 on primary human NK cells (human, UniProt P08637 17-254); assay: FACS on human NK cells
T3 construct: whole, on cells; also called resting NK cells
Method: (§1) The required cells were scale-up cultured in a T-75 cell culture flask to the logarithmic growth phase. The medium was aspirated, and the cells were washed twice with a PBS buffer and then digested with trypsin. After the digestion was terminated, the cells were washed twice with the PBS buffer. The cells were counted, and then the cell pellet was resuspended with a [PBS+2% (w/w) BSA] blocking solution to 2×10⁶ cells/ml, and added to a 96-well FACS reaction plate at 50 μl/well. […] 50 μl/well of the antibody to be detected was added at different concentrations, and incubated on ice for 1 hour. […] The mixture was centrifuged and washed 5 times with PBS, and FACS (FACS Canto II, purchased from BD Company) was used for detection and result analysis. Data analysis was performed by software (CellQuest) to obtain the mean fluorescence intensity (MFI) of the cells. Then, software (GraphPad Prism8) was used for analysis, data fitting and EC50 value calculation.
The binding of an antibody to be detected to freshly prepared human NK cells (Milestone Biotechnologies, catalog number: PB56-N-Custom) was detected according to the method of Example 3.1.

[2] = target: T4, human CD16a (158F), full length, on FlpinCHO cells (human, UniProt P08637 17-254); assay: FACS, biotinylated antibody, +10 mg/mL human immunoglobulin
Method: as §1, with “The” for “The required cells were scale-up cultured in a T-75 cell culture flask to the logarithmic growth phase. The”
(§2) An antibody to be detected was labeled in advance according to the instructions of a biotin labeling kit (EZ-Link™ NHS-PEG4 Biotinylation Kit, purchased from Thermofisher Scientific, catalog number: 21455). […] Detection was performed according to the method of Example 3.1, wherein the biotinylated antibody was detected with fluorescein APC-labeled Streptavidin (High Concentration) (purchased from Biolegend, catalog number: 405243).

[3] = target: T5, human CD16a (158V), full length, on cells (human, UniProt P08637 17-254); assay: as above
T5 construct: also used as target for the bought Jurkat-NFAT reporter line stably expressing human CD16a (158V); also called FlpinCHO-human CD16a (158V); FlpinCHO-CD16a (158V)
Method: as §1, with “The” for “The required cells were scale-up cultured in a T-75 cell culture flask to the logarithmic growth phase. The”
as §2

[4] = target: T4, human CD16a (158F), full length, on …; assay: FACS on FlpinCHO cells
Method: as §1

[5] = target: T5, human CD16a (158V), full length, on …; assay: FACS on FlpinCHO cells
Method: as §1

[6] = target: T5, human CD16a (158V), full length, on …; assay: cell-based or functional assay
[7] = target: T1, human CD16b (NA1), full length, on …; assay: FACS on FlpinCHO cells
Method: as §1
(§3) The binding of an antibody to be detected to FlpinCHO-human CD16b cells was detected according to the method of Example 3.1.

[8] = target: T2, human CD16b (NA2), full length, on …; assay: FACS on FlpinCHO cells
Method: as §1, §3

[9] = target: T4, human CD16a (158F), full length, on …; assay: FACS, biotinylated antibody
Method: as §1, with “The” for “The required cells were scale-up cultured in a T-75 cell culture flask to the logarithmic growth phase. The”
as §2

[10] = target: T5, human CD16a (158V), full length, on …; assay: FACS, biotinylated antibody
Method: as §1, with “The” for “The required cells were scale-up cultured in a T-75 cell culture flask to the logarithmic growth phase. The”
as §2

Human CD16a (158V)-his = target: T6, Human CD16a (158V)-his (human); assay: SPR (Biacore), antibody captured on Protein A
T6 construct: entry holds ECD, AVI tag, linker and His tag
Method: (§4) A sample buffer and a running buffer were HBS-EP+ (10 mM HEPES, 150 mM NaCl, 3 mM EDTA and 0.05% surfactant P20) (GE Healthcare; BR-1006-69). The flow-through cell was set to 25° C. The sample block was set to 16° C. Both were pretreated with the running buffer. In each cycle, an antibody to be detected was first captured with a Protein A chip, and then a single concentration of CD16 antigen protein was injected. The binding and dissociation processes of the antibody and the antigen protein were recorded, and finally Glycine pH 1.5 (GE Healthcare; BR-1003-54) was used to complete chip regeneration. Binding was measured by injecting different concentrations of recombinant human CD16-ECD his proteins in a solution for 240 s with a flow rate of 30 μL/min, wherein a total of 5 concentrations were prepared by using 200 nM as a starting concentration (see the detailed results for the actual concentration in the test) and performing a 1:1 dilution. The dissociation phase was monitored for up to 600 s and was triggered by switching from a sample solution to a running buffer. The surface was regenerated by washing with a 10 mM glycine solution (pH 1.5) for 30 s at a flow rate of 30 μL/min. Bulk refractive index difference was corrected by subtracting the response obtained from the goat anti-human Fc surface. Blank injection was also subtracted (=double reference). For calculation of apparent KD and other kinetic parameters, Langmuir 1:1 model was used.

Human CD16a (158F)-his = target: T7, Human CD16a (158F)-his (human); assay: SPR (Biacore), antibody captured on Protein A
T7 construct: entry holds ECD, AVI tag, linker and His tag
Method: as §4

Binder	EC50 [2]	Maximum mean fluorescence intensity [2]	EC50 [3]	Maximum mean fluorescence intensity [3]	EC50 [4]	Maximum mean fluorescence intensity [4]	EC50 [5]	Maximum mean fluorescence intensity [5]	EC50, activation activity for Jurkat cell [6]	Maximum fluorescence value [6]	EC50 [7]	Maximum mean fluorescence intensity [7]	Maximum mean fluorescence intensity [8]	binding result [8]	EC50 [9]	Maximum mean fluorescence intensity [9]	EC50 [10]	Maximum mean fluorescence intensity [10]	Kd (Human CD16a (158V)-his)	koff (Human CD16a (158V)-his)	further results
VHH07 VHH-Fc antibody (Fc fusion) EVQLVESGGGLVQAGGSLRLSCVASRSTLTTYAVRWYRQAPGKQREWVAFISVDGKTNYPDSVKGRFIVSRDNAKNTVYLQMNSLKPEDTADYICRAGGQYWGQGTQVTVSSEPKSSDKTHTCPPCPAPEFEGGPSVFLFPPKPKDTLMISRTPEVTCVVVAVSHEDPEVKFNWYVDGVEVHNAKTKPREEQYNSTYRVVSVLTVLHQDWLNGKEYKCKVSNKALPAPIEKTISKAKGQPREPQVYTLPPSREEMTKNQVSLTCLVKGFYPSDIAVEWESNGQPENNYKTTPPVLDSDGSFFLYSKLTVDKSRWQQGNVFSCSVMHEALHNHYTQKSLSLSPGK	0.87 nM	5520	0.85 nM	7900	0.25 nM	5190	0.32 nM	5970	0.02 nM	174000	0.35 nM	52900	113	no binding (tested: 100 nM)	0.24 nM	4160	0.22 nM	5970	22.7 nM	0.00249 s⁻¹	EC50 [1]: 0.22 nM; Maximum mean fluorescence intensity [1]: 2330; kon (Human CD16a (158V)-his): 110000 M⁻¹ s⁻¹; Kd (Human CD16a (158F)-his): 67.2 nM; koff (Human CD16a (158F)-his): 0.00451 s⁻¹; kon (Human CD16a (158F)-his): 67200 M⁻¹ s⁻¹
VHH08 VHH-Fc antibody (Fc fusion) EVQVVESGGGLVQAGGSLRLSCVASRSTLSTYAVRWYRQAPGNQREWVAFISVDGNTNYPDSVKGRFIVSRDNAKNTVYLQMNSLKPEDTADYICRAGGQYWGQGTQVTVSSEPKSSDKTHTCPPCPAPEFEGGPSVFLFPPKPKDTLMISRTPEVTCVVVAVSHEDPEVKFNWYVDGVEVHNAKTKPREEQYNSTYRVVSVLTVLHQDWLNGKEYKCKVSNKALPAPIEKTISKAKGQPREPQVYTLPPSREEMTKNQVSLTCLVKGFYPSDIAVEWESNGQPENNYKTTPPVLDSDGSFFLYSKLTVDKSRWQQGNVFSCSVMHEALHNHYTQKSLSLSPGK	1.08 nM	6060	1.24 nM	8840	0.56 nM	4240	0.81 nM	4710	0.02 nM	178000	0.18 nM	38600	149	no binding (tested: 100 nM)	0.85 nM	3940	0.71 nM	5660	22.1 nM	0.00266 s⁻¹	kon (Human CD16a (158V)-his): 120000 M⁻¹ s⁻¹; Kd (Human CD16a (158F)-his): 80.5 nM; koff (Human CD16a (158F)-his): 0.00559 s⁻¹; kon (Human CD16a (158F)-his): 69500 M⁻¹ s⁻¹
VHH09 VHH-Fc antibody (Fc fusion) EVQVVESGGGLVQAGGSLRLSCVASTSTLTTYAVRWYRQAPGKQREWVAFISVDGNTNYPDSVKGRFIVSRDNAKNTVYLQMNSLKPEDTADYICRAGGQYWGQGTQVTVSSEPKSSDKTHTCPPCPAPEFEGGPSVFLFPPKPKDTLMISRTPEVTCVVVAVSHEDPEVKFNWYVDGVEVHNAKTKPREEQYNSTYRVVSVLTVLHQDWLNGKEYKCKVSNKALPAPIEKTISKAKGQPREPQVYTLPPSREEMTKNQVSLTCLVKGFYPSDIAVEWESNGQPENNYKTTPPVLDSDGSFFLYSKLTVDKSRWQQGNVFSCSVMHEALHNHYTQKSLSLSPGK	1.35 nM	6500	1.74 nM	9480	0.47 nM	5550	0.69 nM	6240	0.03 nM	159000	0.3 nM	48200	143	no binding (tested: 100 nM)	0.39 nM	5140	0.64 nM	7640	16.1 nM	0.00178 s⁻¹	EC50 [1]: 0.76 nM; Maximum mean fluorescence intensity [1]: 2420; kon (Human CD16a (158V)-his): 110000 M⁻¹ s⁻¹; Kd (Human CD16a (158F)-his): 50.2 nM; koff (Human CD16a (158F)-his): 0.00309 s⁻¹; kon (Human CD16a (158F)-his): 61600 M⁻¹ s⁻¹
